Measured values reported in paper PMC6456224.

Assays:
[1] = system: HMG-box Pf (HMG-box domain of HMGB1) (Plasmodium falciparum); assay: MST; settings: MST: 50 nM aptamer with probeFAM (4:1), PBS, room temperature, protein 0.1 nM-2 uM, stopped-flow: SELEX buffer (100 mM NaCl, 1.5 mM KCl, 5 mM MgCl2, 6 mM …)
[2] = target: HMG-box Hs (HMG-box domain of human HMGB1) (Homo sapiens) (UniProt P09429); assay: MST; settings: MST: 50 nM aptamer with probeFAM (4:1), PBS, room temperature, protein 0.1 nM-2 uM; stopped-flow: SELEX buffer (100 mM NaCl, 1.5 mM KCl, 5 mM MgCl2, 6 mM …)
Sequence of UniProt P09429 (P09429 whole entry, the tested form may be a part): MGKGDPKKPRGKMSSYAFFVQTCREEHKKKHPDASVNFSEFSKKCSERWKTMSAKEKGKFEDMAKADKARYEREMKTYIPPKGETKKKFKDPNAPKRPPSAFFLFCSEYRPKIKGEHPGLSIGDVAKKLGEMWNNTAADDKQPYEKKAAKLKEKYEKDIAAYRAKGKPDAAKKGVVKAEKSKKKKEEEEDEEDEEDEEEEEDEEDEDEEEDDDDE

Sequence: TAGGGAAGAGAAGGACATATGATCACTAGGTCTGCTTAGGATTGCGTAAGTGAAAGTCATTTATTGACTAGTACATGACCACTTGA [PfR3]
- Kd [1]: 1930 nM

Sequence: TAGGGAAGAGAAGGACATATGATAGCCGTGGATTGCAAAGGGCTGCTGTGGCTTAGTTGAATGTTGACTAGTACATGACCACTTGA [PfR5]
- Kd [1]: 560 nM

Sequence: TAGGGAAGAGAAGGACATATGATACCGACTACGTCAACTTGGGTCTGCTCGGGATTGCGGATGTTGACTAGTACATGACCACTTGA [PfE2]
- Kd [1]: 55 nM

Sequence: TAGGGAAGAGAAGGACATATGATAGTTTACACCAAGGACTGCTTAGGATTGCGTTAGGGTATTTTGACTAGTACATGACCACTTGA [PfE3]
- fold lower affinity than HMG-box Pf (fold lower affinity than HMG-box Pf) [2]: 10
- Kd [1]: 815 nM
- Kd ([1]; separate S4 experiment): 740 nM

Sequence: TAGGGAAGAGAAGGACATATGATACCGACTACGTCAACCTGGGTCTGCTCGGGATTGCGGATGTTGACTAGTACATGACCACTTGA [PfR4]
- Kd [1]: 41 nM

Sequence: TAGGGAAGAGAAGGACATATGATGAGAAGGACTGCTTAGGCTTGCGATGTGAAATCTGTAATCTTGACTAGTACATGACCACTTGA [PfR1]
- Kd [1]: 175 nM

Sequence: TAGGGAAGAGAAGGACATATGATCGCGTGGGTTTGGCTCCGGGCCTGGCGGATGCACGTATAGTTGACTAGTACATGACCACTTGA [PfR6 (PfR6FAM)]
- Kd [1]: 65 nM
- Kd ([1]; separate S4 experiment): 64 nM

Sequence: TAGGGAAGAGAAGGACATATGATAGATGCAAAGGACTGCTCAGGCTTGCGATGGCAGCTTCATTTGACTAGTACATGACCACTTGA [PfR2]
- Kd [1]: 778 nM

Sequence: TAGGGAAGAGAAGGACATATGATGCCGACTACGTCAACCTGGGTCTGCTCGGGATTGCGGATGTTGACTAGTACATGACCACTTGA [PfE1]
- Kd [1]: 81 nM
